According to patent CN116440263A (SHANGHAI JUNSHI BIOSCIENCES CO LTD; JUNMENG BIOSCIENCES CO …, dated 2023):

Molecular target: T1, His标签的重组人CTLA-4抗原蛋白 (human, UniProt P16410 36-161, limits assumed)
T1 construct: Made in-house (君盟自制); also called 重组人CTLA-4蛋白; 人CTLA-4蛋白; not shown: His tag
T1 sequence (looked up): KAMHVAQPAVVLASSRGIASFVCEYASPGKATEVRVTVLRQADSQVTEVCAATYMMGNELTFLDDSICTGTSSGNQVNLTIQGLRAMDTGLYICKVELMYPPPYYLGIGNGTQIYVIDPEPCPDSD
Test: SPR (Biacore T200): antibody captured on goat anti-human Fc CM5 chip, His-tagged CTLA-4 0.75-24 nM as analyte, kinetic fit

B1: huJS007-47 (antibody, V domains shown)
VH: QVQLQESGPGLVKPSQTLSLTCTVSAYSITSGYYWNWIRQHPGKGLEWIGYIGYDGSNNYNPSLKSRVTISRDTSKNQFSLKLSSVTAADTAVYYCARDYYSGYFDSWGQGTTLTVSS
VL: DIQMTQSPSSLSASVGDRVTITCRASQNVGTYVAWYQQKPGKVPKPLIYSTSYRYSGVPSRFSGSGSGTDFTLTISSLQPEDVATYFCHQYDTYPLTFGAGTKLELKR
B1 was tested, and the Kd was 0.206 nM, the koff was 0.000169 s⁻¹ and the kon was 818000 M⁻¹ s⁻¹.
